Publication PMC10046281, “MoS2-Carbon Nanodots as a New Electrochemiluminescence Platform for Breast Cancer Biomarker Detection”

Biological target: HER2 (recombinant human HER2 standard) (human, UniProt P04626 23-652)
Assay: electrochemiluminescence aptasensor; aptamer immobilized on MoS2-NS, BSA blocked; [Ru(bpy)3]2+/CD read-out; LOD 1.84 fg/mL (not a Kd); HER2 diluted in 10 mM phosphate buffer, 0.4 M NaCl, pH 7.4; BSA-blocked electrode; incubation temperature not given in the material
Details: protein: recombinant

B1: Apt-SH (HER2 aptamer) (ssDNA)
DNA: AACCGCCCAAATCCCTAAGAGTCTGCACTTGTCATTTTGTATATGTATTTGGTTTTTGGCTCTCACAGACACACTACACACGCACA
modifications: 5'-SH-(CH2)6 thiol
B1: binds.
